Measurements as given in US5609876, “Peptide vaccines and associated methods for protection against feline leukemia virus” (University of Pittsburgh of the Commonwealth System of …, dated 1997).
No end group written: not given here.

Target: T1, PRN4358 (feline leukemia virus (FeLV 61-E gp70))
T1 peptide: VAPTTVGPKRIGTGDR-NH2
Assay: 1H-NMR of an equimolar (5 mM) mixture of PRN42 and PRN4358, amide proton protection in D2O

TPPQAMGPNLVLPDQKPPSRQSQTGSKVATQRPQTNESAPRS-NH2 [PRN42]
binding result: binds
